Data taken from patent US20160175440A1, “COMPOSITIONS AND METHODS FOR THE […] OF BURKHOLDERIA INFECTIONS” (Research Institute at Nationwide Children's Hospital, published 2016).

Biological target: Integration host factor (IHF alpha/beta heterodimer) (Escherichia coli, UniProt P0A6X7;P0A6Y1 SEQ:1-99,SEQ:1-94)
Assay: footprint; DNase I footprint at 50 nM IHF; hypersensitive site indicative of DNA bending
Details: tags: crystallographically pure IHF, gift of Howard Nash, NIH; no tag stated; label: 32P end label

Integration host factor (IHF alpha/beta heterodimer), sequence (P0A6X7 whole entry, chain 1 of 2): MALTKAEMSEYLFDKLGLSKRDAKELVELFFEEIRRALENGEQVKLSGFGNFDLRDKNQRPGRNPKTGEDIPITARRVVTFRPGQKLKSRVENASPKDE
Integration host factor (IHF alpha/beta heterodimer), sequence (P0A6Y1 whole entry, chain 2 of 2): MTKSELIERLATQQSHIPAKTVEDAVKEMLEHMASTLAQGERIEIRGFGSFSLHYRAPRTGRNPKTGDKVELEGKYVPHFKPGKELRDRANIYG

B1: 386 bp BCAL0339-BCAL0340 intergenic region (T6SS gene cluster upstream) (dsDNA)
DNA 1: TCTCAACGATTTA
DNA 2: TAAATCGTTGAGA
binding result: binds
